Measurements from the DeepSol protein solubility set.

Experiment: soluble on expression in E. coli; label from the status in PepcDB or PDB records

Soluble on expression in E. coli, not soluble:
MGSDKIHHHHHHMMKRVLIKPLEPLMFRSQGEFEPLITGSHTAAQSLIIPRPSTIAGMLGYILFNKSSGTGDWLSDLTNLLDTIYGTFIETNGEYLFPLRMGNHLALVDQQHLINLPILLEKEYEQREKGIYELFYDKNKLFQIINHQDRIGISIDKSTRTVKEHYLYSARYLAFKKEVNYVIFIDNDAISDKINGKIVNFGGENRIAKLEVDDYKVDTSIEEEYYLTLSPILIPDEALDDLLDNISDYVTMGKVDKISLGFDIANTKRKEMLTAILEGSIVKRSIIDFIKKEINNNLLDRFTKYEKIGYNTLMNLCKLAFRKILS, MGSDKIHHHHHHMMPIRRPFGRGPAVSLFTLGTMRAIGSAEQMYGVVKAAQAAGINHIETSPAYGPAESFLGTALRQLQQKQAEPSGGWVITSKLLPGLSLKEGQCELHNLLARLGRPKLENLAVHGLNRPEHLEWALSGDGAALLRWAEEEDLVVQVGFTSHGSFPLIKEALASGRFQFCSLHLHLLDPERIPLAREALASGMGVMAISPADKGGRLQDPSPTLVEDCSPLSPLQLAYRFLLAAKISTLSLGAAQPEDLTLAAQLANADGPLNQREQRALNQLRQQGERRLGENRCGQCKACLPCPKSVPIPDLLRLRNLAVGHNLQAFTEERYNLIGRAGHWWEGIDGSACERCGECLPRCPHHLPIPDLLADTHQRLAAAPRRRLWG, MGSDKIHHHHHHMMSNTAATVNHSQKVDLFIVGGGMIGSALAARLAPSGMRIALLENHQPAAFDPSSPPDLRVSALSPASIDFLEQAQAWPAIQTMRTAPFKRMQVWENRQDHGTMFDAAEVDAPWLGHIVENRLVQLACLEIVEGYDNVTLLCPGEIGQIAYRPEGSHIRLNSGQIFEATLLIGADGANSQVRKAAGIALDSQQYPMHALVATVAIQGGERDITWQRFTPDGPQSLLPLPGDYASLVWYHRPSEVRRLLTLDDDALLDAFRQHFPAVLPEITGLVRRGSFPLARSHAQAYVRPGVALIGDAAHTIHPLAGQGVNLGFQDAAVLSETLLRAWQTGADLAALPHLQRYERQRKLANLVMQRAMDAFSYGFSNDVAPLRLLRNLGLRFADHTGPIKRQVIRYALGLGPQPSLPLPSGLSKLLP, MGSDKIHHHHHHMMTEMQQRAQLHRQIWKIADEVRGAVDGWDFKQYVLGTLFYRFISENFTDYMQAGDSSIDYAAMPDSIITPEIKDDAVKVKGYFIYPGQLFCNIAAEAHQNEELNTKLKEIFTAIESSASGYPSEQGIKGLFDDFDTTSSRLGSTVADKNKRLAAVLKGVAELDFGNFEDHRIDLFGDAYEYLISNYAANAGKSGGEFFTPQSVSKLIARLAVHGQEKVNKIYDPACGSGSLLLQAKKQFDEHIIEEGFFGQEINHTTYNLARMNMFLHNVNYNKFHIELGDTLTNPKLKDSKPFDAVVSNPPYSIDWIGSDDPTLINDDRFAPAGVLAPKSKADFAFILHALNYLSGRGRAAIVSFPGIFYRGGAEQKIRQYLVEGNYVETVIALAPNLFYGTCIAVNILVLSKHKDNTDIQFIDASGFFKKETNNNVLTEEHIAEIVKLFADKADVPHIAQNAAQQTVKDNGYNLAVSSYVEAEDTREVIDIRQLNAEISETVAKIERLRREIDEVIAEIET, MGSDKIHHHHHHMMVPHLTTALTGPLLTLEKRLLDNMPRIEHWFRSQWQEYGAPFYASVDLRNAGFKLAPVDTNLFPGGFNNLNPDFLPLCIQAAMVAVEKICPDARRLLLIPENHTRNTFYLRNVHALTHILRQAGLEVRIGSIAPEITAPTFLETHDGHSILLEPVRRKANRLELDNFDSCAILLNNDLSGGIPDILQGLEQSLIPPLHAGWATRRKSNHFTAYDRVVEEFAPLIDIDPWLLNPYFDTCGGLDFHARLGEEQLAEKVDSLLAKIRRKYAEYGVKQEPFVIVKADAGTYGMGIMTVKSADDVRDLNRKQRNKMSVVKEGLKVSEVILQEGVYTFEHLKDAVAEPVIYMMDHFVVGGFYRVHTSRGADENLNAPGMHFEPLTFETPCSTPDCAGAPDAAPNRFYAYGVVARLALLAATIELQETDPDLLDERT, MGSDKIHHHHHHMNAPFVPSRVVARLADPGERPAVARFLDAHPDATVFHRAAWLDAVEQSTGHRTHVLVSGQDEAIRAVLPLHEVHSPLFGRALVSTGFGVGGGVVGKGDAALFAAAQELAVRLNCPTVELRGGPLPQGDGWHVKTDSHAGFVTPLAADDEAQLLAIPRKQRAEVRRGLGYGMEVRTGRSPEDRAMHHAVYAQSVRNLGTPVFPRRLFDAVLDGFGDDADILTVLHEGRPLASVLSLYHRGAVMPYWGGGTFEARAMRANDVMYYALMNHARARGCDRFDFGRSKVDSGAYHFKRNWGFAPQPLSYAHWTADGQAPRDVNPLSPRYRARIALWQKLPLAVANRLGPIIANGLA
